*1 amine or outer side, *2 acyl side, *3 side chain or, on linkers, in order; H or OH if unused. Bridges are numbered along the chain shown (N, C = ends). [ ]: non-standard residue; d: D form. The star is where a group is joined. C20 diacid = O=C(O)CCCCCCCCCCCCCCCCCCC(=O)*; γGlu = O=C(O)[C@H](CCC(=O)[*:2])N[*:1]; NMeI = CC[C@H](C)[C@H](NC)C(=O)O; Sar = CNCC(=O)O
T1: human amylin receptor 3 (hAMYR3), hCTR2 co-expressed with human receptor activity modifying protein 3 (hRAMP3) (human, UniProt P30988 25-474; O60896 24-148)
T1 sequence (looked up) 1: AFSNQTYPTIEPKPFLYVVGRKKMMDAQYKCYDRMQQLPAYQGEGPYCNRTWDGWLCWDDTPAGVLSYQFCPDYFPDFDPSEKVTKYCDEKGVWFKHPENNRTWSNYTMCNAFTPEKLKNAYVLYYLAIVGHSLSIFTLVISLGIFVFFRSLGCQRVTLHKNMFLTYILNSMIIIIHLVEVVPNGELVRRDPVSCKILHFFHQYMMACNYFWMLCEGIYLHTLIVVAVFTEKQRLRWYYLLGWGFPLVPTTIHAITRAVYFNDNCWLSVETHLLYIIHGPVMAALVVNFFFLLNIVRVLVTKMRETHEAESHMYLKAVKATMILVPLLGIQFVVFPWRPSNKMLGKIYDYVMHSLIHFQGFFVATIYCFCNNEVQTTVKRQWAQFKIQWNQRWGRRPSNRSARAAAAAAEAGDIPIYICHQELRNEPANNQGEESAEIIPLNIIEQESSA
T1 sequence (looked up) 2: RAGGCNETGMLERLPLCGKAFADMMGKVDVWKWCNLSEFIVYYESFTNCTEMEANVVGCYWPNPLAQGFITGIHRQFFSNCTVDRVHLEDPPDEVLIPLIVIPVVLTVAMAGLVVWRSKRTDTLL


Target: T1, human amylin receptor 3 (hAMYR3), hCTR2 …
Test: cell-based or functional assay

| Binder | hAMYR3 EC50 (nM); cAMP induction [nM] |
| --- | --- |
| {C20 diacid}-[γGlu]RCPTATCATDRLAHFLHRSSF[Sar]A[NMeI]LSSTDVGSNTP-NH2 (disulfide 3-8; SMILES CC[C@H](C)[C@@H](C(=O)N[C@@H](CC(C)C)C(=O)N[C@@H](CO)C(=O)N[C@@H](CO)C(=O)N[C@H](C(=O)N[C@@H](CC(=O)O)C(=O)N[C@H](C(=O)NCC(=O)N[C@@H](CO)C(=O)N[C@@H](CC(N)=O)C(=O)N[C@H](C(=O)N1CCC[C@H]1C(N)=O)[C@@H](C)O)C(C)C)[C@@H](C)O)N(C)C(=O)[C@H](C)NC(=O)CN(C)C(=O)[C@H](Cc1ccccc1)NC(=O)[C@H](CO)NC(=O)[C@H](CO)NC(=O)[C@H](CCCNC(=N)N)NC(=O)[C@H](Cc1c[nH]cn1)NC(=O)[C@H](CC(C)C)NC(=O)[C@H](Cc1ccccc1)NC(=O)[C@H](Cc1c[nH]cn1)NC(=O)[C@H](C)NC(=O)[C@H](CC(C)C)NC(=O)[C@H](CCCNC(=N)N)NC(=O)[C@H](CC(=O)O)NC(=O)[C@@H](NC(=O)[C@H](C)NC(=O)[C@@H]1CSSC[C@H](NC(=O)[C@H](CCCNC(=N)N)NC(=O)CC[C@H](NC(=O)CCCCCCCCCCCCCCCCCCC(=O)O)C(=O)O)C(=O)N2CCC[C@H]2C(=O)N[C@@H]([C@@H](C)O)C(=O)N[C@@H](C)C(=O)N[C@@H]([C@@H](C)O)C(=O)N1)[C@@H](C)O) [[19CD]-isoGlu-R-C( )-PTAT-C( )-ATDRLAHFLHRSSF-Gly(Me)-A-Ile(Me)-LSSTDVGSNTP-NH2 (Compd. 25)] | 0.094 |
| {C20 diacid}-[γGlu]RCPTATCATDRLAHFLVRSSF[Sar]A[NMeI]LSSTDVGSDTP-NH2 (disulfide 3-8; SMILES CC[C@H](C)[C@@H](C(=O)N[C@@H](CC(C)C)C(=O)N[C@@H](CO)C(=O)N[C@@H](CO)C(=O)N[C@H](C(=O)N[C@@H](CC(=O)O)C(=O)N[C@H](C(=O)NCC(=O)N[C@@H](CO)C(=O)N[C@@H](CC(=O)O)C(=O)N[C@H](C(=O)N1CCC[C@H]1C(N)=O)[C@@H](C)O)C(C)C)[C@@H](C)O)N(C)C(=O)[C@H](C)NC(=O)CN(C)C(=O)[C@H](Cc1ccccc1)NC(=O)[C@H](CO)NC(=O)[C@H](CO)NC(=O)[C@H](CCCNC(=N)N)NC(=O)[C@@H](NC(=O)[C@H](CC(C)C)NC(=O)[C@H](Cc1ccccc1)NC(=O)[C@H](Cc1c[nH]cn1)NC(=O)[C@H](C)NC(=O)[C@H](CC(C)C)NC(=O)[C@H](CCCNC(=N)N)NC(=O)[C@H](CC(=O)O)NC(=O)[C@@H](NC(=O)[C@H](C)NC(=O)[C@@H]1CSSC[C@H](NC(=O)[C@H](CCCNC(=N)N)NC(=O)CC[C@H](NC(=O)CCCCCCCCCCCCCCCCCCC(=O)O)C(=O)O)C(=O)N2CCC[C@H]2C(=O)N[C@@H]([C@@H](C)O)C(=O)N[C@@H](C)C(=O)N[C@@H]([C@@H](C)O)C(=O)N1)[C@@H](C)O)C(C)C) [[19CD]-isoGlu-R-C( )-PTAT-C( )-ATDRLAHFLVRSSF-Gly(Me)-A-Ile(Me)-LSSTDVGSDTP-NH2 (Compd. 23)] | 0.13 |
| {C20 diacid}-[γGlu]RCPTATCATDRLAHFLHRSSF[Sar]A[NMeI]LSSTDVGSDTP-NH2 (disulfide 3-8; SMILES CC[C@H](C)[C@@H](C(=O)N[C@@H](CC(C)C)C(=O)N[C@@H](CO)C(=O)N[C@@H](CO)C(=O)N[C@H](C(=O)N[C@@H](CC(=O)O)C(=O)N[C@H](C(=O)NCC(=O)N[C@@H](CO)C(=O)N[C@@H](CC(=O)O)C(=O)N[C@H](C(=O)N1CCC[C@H]1C(N)=O)[C@@H](C)O)C(C)C)[C@@H](C)O)N(C)C(=O)[C@H](C)NC(=O)CN(C)C(=O)[C@H](Cc1ccccc1)NC(=O)[C@H](CO)NC(=O)[C@H](CO)NC(=O)[C@H](CCCNC(=N)N)NC(=O)[C@H](Cc1c[nH]cn1)NC(=O)[C@H](CC(C)C)NC(=O)[C@H](Cc1ccccc1)NC(=O)[C@H](Cc1c[nH]cn1)NC(=O)[C@H](C)NC(=O)[C@H](CC(C)C)NC(=O)[C@H](CCCNC(=N)N)NC(=O)[C@H](CC(=O)O)NC(=O)[C@@H](NC(=O)[C@H](C)NC(=O)[C@@H]1CSSC[C@H](NC(=O)[C@H](CCCNC(=N)N)NC(=O)CC[C@H](NC(=O)CCCCCCCCCCCCCCCCCCC(=O)O)C(=O)O)C(=O)N2CCC[C@H]2C(=O)N[C@@H]([C@@H](C)O)C(=O)N[C@@H](C)C(=O)N[C@@H]([C@@H](C)O)C(=O)N1)[C@@H](C)O) [[19CD]-isoGlu-R-C( )-PTAT-C( )-ATDRLAHFLHRSSF-Gly(Me)-A-Ile(Me)-LSSTDVGSDTP-NH2 (Compd. 27)] | 0.16 |
| {C20 diacid-γGlu}-RCNTATCATQRLAHFLHRVSF[Sar]A[NMeI]LSSTEVGSETP-NH2 (disulfide 2-7; SMILES CC[C@H](C)[C@@H](C(=O)N[C@@H](CC(C)C)C(=O)N[C@@H](CO)C(=O)N[C@@H](CO)C(=O)N[C@H](C(=O)N[C@@H](CCC(=O)O)C(=O)N[C@H](C(=O)NCC(=O)N[C@@H](CO)C(=O)N[C@@H](CCC(=O)O)C(=O)N[C@H](C(=O)N1CCC[C@H]1C(N)=O)[C@@H](C)O)C(C)C)[C@@H](C)O)N(C)C(=O)[C@H](C)NC(=O)CN(C)C(=O)[C@H](Cc1ccccc1)NC(=O)[C@H](CO)NC(=O)[C@@H](NC(=O)[C@H](CCCNC(=N)N)NC(=O)[C@H](Cc1c[nH]cn1)NC(=O)[C@H](CC(C)C)NC(=O)[C@H](Cc1ccccc1)NC(=O)[C@H](Cc1c[nH]cn1)NC(=O)[C@H](C)NC(=O)[C@H](CC(C)C)NC(=O)[C@H](CCCNC(=N)N)NC(=O)[C@H](CCC(N)=O)NC(=O)[C@@H](NC(=O)[C@H](C)NC(=O)[C@@H]1CSSC[C@H](NC(=O)[C@H](CCCNC(=N)N)NC(=O)CC[C@H](NC(=O)CCCCCCCCCCCCCCCCCCC(=O)O)C(=O)O)C(=O)N[C@@H](CC(N)=O)C(=O)N[C@@H]([C@@H](C)O)C(=O)N[C@@H](C)C(=O)N[C@@H]([C@@H](C)O)C(=O)N1)[C@@H](C)O)C(C)C) [[19CD]-isoGlu-R-C( )-NTAT-C( )-ATQRLAHFLHRVSF-Gly(Me)-A-Ile(Me)-LSSTEVGSETP-NH2 (Compd. 21)] | 0.23 |
| {C20 diacid}-[γGlu]RCNTATCATQRLAHFLVRSSF[Sar]A[NMeI]LSSTEVGSETP-NH2 (disulfide 3-8; SMILES CC[C@H](C)[C@@H](C(=O)N[C@@H](CC(C)C)C(=O)N[C@@H](CO)C(=O)N[C@@H](CO)C(=O)N[C@H](C(=O)N[C@@H](CCC(=O)O)C(=O)N[C@H](C(=O)NCC(=O)N[C@@H](CO)C(=O)N[C@@H](CCC(=O)O)C(=O)N[C@H](C(=O)N1CCC[C@H]1C(N)=O)[C@@H](C)O)C(C)C)[C@@H](C)O)N(C)C(=O)[C@H](C)NC(=O)CN(C)C(=O)[C@H](Cc1ccccc1)NC(=O)[C@H](CO)NC(=O)[C@H](CO)NC(=O)[C@H](CCCNC(=N)N)NC(=O)[C@@H](NC(=O)[C@H](CC(C)C)NC(=O)[C@H](Cc1ccccc1)NC(=O)[C@H](Cc1c[nH]cn1)NC(=O)[C@H](C)NC(=O)[C@H](CC(C)C)NC(=O)[C@H](CCCNC(=N)N)NC(=O)[C@H](CCC(N)=O)NC(=O)[C@@H](NC(=O)[C@H](C)NC(=O)[C@@H]1CSSC[C@H](NC(=O)[C@H](CCCNC(=N)N)NC(=O)CC[C@H](NC(=O)CCCCCCCCCCCCCCCCCCC(=O)O)C(=O)O)C(=O)N[C@@H](CC(N)=O)C(=O)N[C@@H]([C@@H](C)O)C(=O)N[C@@H](C)C(=O)N[C@@H]([C@@H](C)O)C(=O)N1)[C@@H](C)O)C(C)C) [[19CD]-isoGlu-R-C( )-NTAT-C( )-ATQRLAHFLVRSSF-Gly(Me)-A-Ile(Me)-LSSTEVGSETP-NH2 (Compd. 24)] | 0.19 |
| {C20 diacid}-[γGlu]RCGTATCATERLAHFLVRSSF[Sar]A[NMeI]LSSTEVGSETP-NH2 (disulfide 3-8; SMILES CC[C@H](C)[C@@H](C(=O)N[C@@H](CC(C)C)C(=O)N[C@@H](CO)C(=O)N[C@@H](CO)C(=O)N[C@H](C(=O)N[C@@H](CCC(=O)O)C(=O)N[C@H](C(=O)NCC(=O)N[C@@H](CO)C(=O)N[C@@H](CCC(=O)O)C(=O)N[C@H](C(=O)N1CCC[C@H]1C(N)=O)[C@@H](C)O)C(C)C)[C@@H](C)O)N(C)C(=O)[C@H](C)NC(=O)CN(C)C(=O)[C@H](Cc1ccccc1)NC(=O)[C@H](CO)NC(=O)[C@H](CO)NC(=O)[C@H](CCCNC(=N)N)NC(=O)[C@@H](NC(=O)[C@H](CC(C)C)NC(=O)[C@H](Cc1ccccc1)NC(=O)[C@H](Cc1c[nH]cn1)NC(=O)[C@H](C)NC(=O)[C@H](CC(C)C)NC(=O)[C@H](CCCNC(=N)N)NC(=O)[C@H](CCC(=O)O)NC(=O)[C@@H](NC(=O)[C@H](C)NC(=O)[C@@H]1CSSC[C@H](NC(=O)[C@H](CCCNC(=N)N)NC(=O)CC[C@H](NC(=O)CCCCCCCCCCCCCCCCCCC(=O)O)C(=O)O)C(=O)NCC(=O)N[C@@H]([C@@H](C)O)C(=O)N[C@@H](C)C(=O)N[C@@H]([C@@H](C)O)C(=O)N1)[C@@H](C)O)C(C)C) [[19CD]-isoGlu-R-C( )-GTAT-C( )-ATERLAHFLVRSSF-Gly(Me)-A-Ile(Me)-LSSTEVGSETP-NH2 (Compd. 22)] | 0.59 |
| {C20 diacid}-[γGlu]RCGTATCATERLAHFLHRSSF[Sar]A[NMeI]LSSTEVGSETP-NH2 (disulfide 3-8; SMILES CC[C@H](C)[C@@H](C(=O)N[C@@H](CC(C)C)C(=O)N[C@@H](CO)C(=O)N[C@@H](CO)C(=O)N[C@H](C(=O)N[C@@H](CCC(=O)O)C(=O)N[C@H](C(=O)NCC(=O)N[C@@H](CO)C(=O)N[C@@H](CCC(=O)O)C(=O)N[C@H](C(=O)N1CCC[C@H]1C(N)=O)[C@@H](C)O)C(C)C)[C@@H](C)O)N(C)C(=O)[C@H](C)NC(=O)CN(C)C(=O)[C@H](Cc1ccccc1)NC(=O)[C@H](CO)NC(=O)[C@H](CO)NC(=O)[C@H](CCCNC(=N)N)NC(=O)[C@H](Cc1c[nH]cn1)NC(=O)[C@H](CC(C)C)NC(=O)[C@H](Cc1ccccc1)NC(=O)[C@H](Cc1c[nH]cn1)NC(=O)[C@H](C)NC(=O)[C@H](CC(C)C)NC(=O)[C@H](CCCNC(=N)N)NC(=O)[C@H](CCC(=O)O)NC(=O)[C@@H](NC(=O)[C@H](C)NC(=O)[C@@H]1CSSC[C@H](NC(=O)[C@H](CCCNC(=N)N)NC(=O)CC[C@H](NC(=O)CCCCCCCCCCCCCCCCCCC(=O)O)C(=O)O)C(=O)NCC(=O)N[C@@H]([C@@H](C)O)C(=O)N[C@@H](C)C(=O)N[C@@H]([C@@H](C)O)C(=O)N1)[C@@H](C)O) [[19CD]-isoGlu-R-C( )-GTAT-C( )-ATERLAHFLHRSSF-Gly(Me)-A-Ile(Me)-LSSTEVGSETP-NH2 (Compd. 26)] | 0.12 |

— patent US20160272693A1 (ZEALAND PHARMA A S, published 2016)
